Experimental data: the RNAGym collection of RNA variant scans (doi:10.7554/elife.80360)

B1: CPEB3 Ribozyme (parent)
chain: GGGGGCCACAGCAGAAGCGUUCACGUCGCGGCCCCUGUCAGAUUCUGGUGAAUCUGCGAAUUCUGCUGU

Variants of: B1
Assay: self-cleavage, relative activity (ratio to wild type); higher = more cleavage; co-transcriptional

Variant | self-cleavage
G14A G28C | 0.146
A13G U67C | 0.94
A13G U67A | 0.889
A13C U55C | 0.439
A13G U36A | 0.222
A13G U36C | 0.816
A13U G68C | 0.841
A13U G68U | 0.886
A13U G68A | 0.903
A13U G56A | 0.688
A13U G56C | 0.31
G14A G41A | 0.196
A13G C32A | 0.773
A13G C32U | 0.916
A13G C32G | 0.318
G14A G65C | 0.311
G14A G65U | 0.3
A13G C22G | 0.199
A13G A42U | 0.74
A13U U43A | 0.31
A13U U43C | 0.678
G14A C35U | 0.668
G14A U20G | 0.124
G14A U20A | 0.132

Variant | self-cleavage
A13G G68A | 1.01
A13G G17U | 0.214
A13G G17A | 0.0885
G14A A52C | 0.688
G14A A52U | 0.643
A13G C35G | 0.446
G14A A40G | 0.495
G14A A40C | 0.234
A13C U20A | 0.149
A13C U20C | 0.128
G14A G68C | 0.756
A13G U21G | 0.355
A13G U21A | 0.966
A13G U21C | 0.74
A13G G58A | 0.902
A13G G58C | 0.878
A13G G58U | 1.01
A13C U53A | 0.579
A13U U38A | 0.609
A13U U38C | 0.704
A13U U38G | 0.198
A13G C39G | 0.758
A13G C39U | 0.8
A13U G30A | 0.487

Variant | self-cleavage
A13U G30C | 0.393
A13U G30U | 0.228
G14A A60U | 0.23
G14A A60G | 0.358
G14A A60C | 0.28
A13G A52C | 0.827
A13G A52G | 1.02
A13G G31U | 0.555
A13G G31A | 0.775
A13G C18G | 0.169
A13G C18A | 0.0625
G14A A51C | 0.486
G14A A51U | 0.75
A13U A15G | 0.79
A13U A15C | 0.354
A13U A15U | 0.56
G14A G47U | 0.889
G14A G47C | 0.827
A13U G65A | 0.513
A13U G65U | 0.419
A13U G65C | 0.417
A13G U49A | 0.95
A13U U61C | 0.32
A13U U61A | 0.456

Variant | self-cleavage
A13U U61G | 0.46
A13G G47U | 1.06
A13G G47A | 0.994
A13U G58A | 0.758
G14A C45A | 0.612
G14A C45U | 0.778
G14A C45G | 0.638
G14A C39G | 0.385
G14A C39U | 0.362
G14A C39A | 0.22
G14A C24A | 0.238
G14A C24U | 0.2
A13G C24A | 0.54
A13G C24U | 0.712
G14A G30A | 0.235
A13G U46G | 0.979
A13G U46A | 1.02
G14A G50C | 0.61
G14A G50A | 0.778
G14A G50U | 0.743
A13C G68C | 0.917
A13G G65U | 0.561
G14A C54A | 0.239
A13G C27U | 0.168

Variant | self-cleavage
A13U C66U | 0.583
A13U C66A | 0.323
A13C U64G | 0.922
A13C U64A | 0.948
A13U U46C | 0.873
A13U U46G | 0.905
A13U U46A | 0.942
A13C U61C | 0.281
G14A A15C | 0.305
A13U A40G | 0.607
A13G G14C | 0.255
A13G G14U | 0.146
A13G G14A | 0.276
A13G G25U | 0.118
A13G G25C | 0.135
A13G G25A | 0.186
A13U C27A | 0.207
A13U U44G | 0.575
A13U U44C | 0.345
A13U C29G | 0.0771
A13U C29A | 0.178
A13U C29U | 0.138
A13G U43G | 0.539
A13G U43C | 0.785

Variant | self-cleavage
A13U G41A | 0.263
A13U G41C | 0.247
A13C U67G | 0.824
A13G U69G | 1.01
A13G U69C | 1.04
A13U G17U | 0.163
A13U G17A | 0.102
A13G G30C | 0.711
A13G G30A | 0.856
G14A C63A | 0.829
A13U U21G | 0.173
A13U U21C | 0.691
A13U U21A | 0.785
G14A A59G | 0.704
G14A A59U | 0.369
A13U A42G | 0.645
A13U A42U | 0.494
A13U G50A | 0.776
A13U G50U | 0.857
A13U G50C | 0.756
A13G A23C | 0.781
A13U C63G | 0.294
A13U C63A | 0.317
A13G C57U | 0.358

Variant | self-cleavage
A13G C57G | 0.36
A13U G25A | 0.168
G14A C32A | 0.336
G14A C32G | 0.212
A13G C63A | 0.26
A13G C63U | 0.842
A13G C63G | 0.504
A13G U26C | 0.78
A13G U26G | 0.935
A13G U61C | 0.402
A13G U61G | 0.53
A13U C33G | 0.333
A13U C33A | 0.759
A13G C66G | 0.489
A13G C45A | 0.889
A13G C45U | 0.917
A13U C35G | 0.258
A13U A52U | 0.776
A13U A52C | 0.8
A13U A52G | 0.902
A13U C34A | 0.704
A13U C34G | 0.309
A13U U64A | 0.945
